Data set [1] has as its target GST fusion protein with full-length S. aureus WalR (1–233) (Staphylococcus aureus NCTC8325) (UniProt Q2G2U6).
Data set [2] concerns the target S. mutans WalR full-length (Streptococcus mutans UA159). Briefly: ITC; MicroCal iTC200, 25°C; 500 μM WalK (196–450) WT or CTT mutant in the syringe, 20 μM full-length WalR in the cell; 20 mM Tris-HCl pH 8.0, 200 mM NaCl, 20% glycerol. On the technique in general: In ITC the heat of successive injections is recorded.
Another data set concerns the target WalK (196-450) (Streptococcus mutans UA159, UniProt Q8DT64 196-450). Description: EMSA. The note with it: protein: recombinant; tags: N-terminal His. Background: In EMSA bound probe runs differently from free probe, usually more slowly.
In the next data set the target is WalR full-length (Streptococcus mutans UA159, UniProt Q93MY4 1-235). Briefly: EMSA; 20 uM DNA; complex released by increasing WalK 196-450. The note with it: protein: recombinant; chain copies: 2.
The target in another data set is WalR DBD (Streptococcus mutans UA159, UniProt Q93MY4 129-235). Description: EMSA; 20 uM DNA; complex released by WalK 196-450 (W443A and delta-tail WalK compete less). The note with it: protein: recombinant; chain copies: 2.
In data set [3] the target is T1, S. aureus WalK (364–608) D605A (Staphylococcus aureus NCTC8325, UniProt Q2G2U4 364-608, D605A).
T1 construct: source: E. coli BL21 (DE3), purified (Ni-NTA, Superdex 200); not shown: His tag, N-terminal, kept
T1 sequence: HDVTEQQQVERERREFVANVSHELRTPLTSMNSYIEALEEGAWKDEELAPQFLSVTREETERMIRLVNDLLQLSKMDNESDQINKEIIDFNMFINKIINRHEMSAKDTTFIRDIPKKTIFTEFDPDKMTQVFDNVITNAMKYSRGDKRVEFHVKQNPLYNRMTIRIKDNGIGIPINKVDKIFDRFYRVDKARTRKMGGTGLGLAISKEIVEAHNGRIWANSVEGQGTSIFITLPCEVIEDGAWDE
Briefly: pull-down; GST-tagged WalR protein held on glutathione agarose beads, His-tagged WalK as prey, equal molar amounts (~3 μl of 50 μM each) in 1 ml of 20 mM Tris-HCl pH 8.0, 200 mM NaCl, 5% glycerol, 2 mM EDTA, 2 h at 4°C; SDS-PAGE stained with CBB. The note with it: both partners purified.

For data set [4], the target named is T2, S. aureus WalK (364–608) WT (Staphylococcus aureus NCTC8325, UniProt Q2G2U4 364-608).
T2 construct: cloned in pET-His; source: E. coli BL21 (DE3), purified (Ni-NTA, Superdex 200); not shown: His tag, N-terminal, kept
T2 sequence (looked up): T1 sequence with A242D
Described as above. To be noted: both partners purified.

Positions count from the first letter of the chain named.

As a reminder, the Kd is the free concentration of one partner at which half of the binding sites on the other are occupied at equilibrium, for simple one-to-one binding. The low end stands for tighter binding, the high end for weaker binding.

In the case of “S. aureus WalK (364–608) D607A (from UniProt Q2G2U4 364-608) (domain or fragment)”, in data set [1], the phosphotransferase activity of S. aureus WalK (364–608) with WalR (loss of phospho-WalK, at 30 min) is 2 ×.
The molecule “S. mutans WalK (196–450) WT (domain or fragment)” registered a Kd in data set [2] of 1210 nM.
Regarding “S. aureus WalK (364–608) W606A (from UniProt Q2G2U4 364-608) (domain or fragment)”, the phosphotransferase activity of S. aureus WalK (364–608) with WalR (loss of phospho-WalK, at 30 min) in data set [1] amounted to 2 ×.

B1: gtfC promoter 25-mer (dsDNA)
DNA 1: GTTTGTTATAAAAGTGTTACAATAC
DNA 2: GTATTGTAACACTTTTATAACAAAC
Consider B1, for which the values for the binding result with WalK (196-450), with WalR full-length and with WalR DBD were “no binding”, “binds” and “binds”, respectively.

B2: GST fusion protein with full-length S. aureus WalR (1–233) (natural protein, Staphylococcus aureus NCTC8325, UniProt Q2G2U6 1-233, looked up)
chain: MARKVVVVDDEKPIADILEFNLKKEGYDVYCAYDGNDAVDLIYEEEPDIVLLDIMLPGRDGMEVCREVRKKYEMPIIMLTAKDSEIDKVLGLELGADDYVTKPFSTRELIARVKANLRRHYSQPAQDTGNVTNEITIKDIVIYPDAYSIKKRGEDIELTHREFELFHYLSKHMGQVMTREHLLQTVWGYDYFGDVRTVDVTIRRLREKIEDDPSHPEYIVTRRGVGYFLQQHE
notes: cloned in pET-GST; also called GST-WalR; source: E. coli BL21 (DE3), purified (glutathione agarose, Superdex 200); not shown: GST, N-terminal, kept
With B2, the binding result in data set [3] and in data set [4] was “binds” each time.

Values taken from paper PMC9087282, “The W-Acidic Motif of Histidine Kinase WalK Is Required for Signaling and Transcriptional Regulation in Streptococcus mutans” (Frontiers in Microbiology, 2022).
